According to publication PMC10275869 (Nature Communications, 2023):

B1: 12B2 (human IgG1) (antibody, V domains shown)
VH: QVQLKESGPGLVAPSQSLSITCTVSGFSLASYGVHWVRQPPGKGLEWLGVIWTGGSTNYNSALMSRLSINRDNSKSQVFLKLNSLQTDDTAIYYCARDRGYGYGGFAYWGQGTLVTVSA
VL: DIQMTQSPASLSASVGETVTITCRASENIYSYLAWYQHKQGKSPQLLVYNAKSLAEGVPSRFSGSGSGTQFSLKINSLQPEDFGSYYCQHHYGTPWTFGGGTKLEIK
B2: mAb66 (human IgG1) (antibody, V domains shown)
VH: ETGSGGGLVKPGGTLTLTCKASGFTLSSYWMCWVRQAPGKGLELIACLYTNGATTWYASWVNGRFAISRSTSRNTVDLNMTSLTAADTATYFCARGSGSGWSWFNIWGPGTLVTVSS
VL: TGVMTQTPASVEAAVGGTVTIKCQASQNIISSLAWYQQKPGQRPKLLIYYASTLASGVPSRFKGSGSGTQFTLTISDLECADAATYYCQSYYYSGITYGNAFGGGTEVVVK
B3: 1F5 (human IgG1) (antibody, V domains shown)
VH: DVQLQESGPGLVKPSQSLSLTCSVTGYSITSDYYWNWIRQFPGNKLEWMGYVTYDGSNNYNPSLKNRISITRDSSKNQFFLKLNSVISEDTATYYCARFGSSYWAMDYWGQGTSLTVSS
VL: QIVLTQSPAIMSASLGEAITLTCSASSSVSYMHWYQQKSGTSPKLLIYSTSNLASGVPSRFSGSGSGTFYSLTISSVEAEDAADYYCHQWYSYPWTFGGGTKLEIK
B4: 5B3 (human IgG1) (antibody, V domains shown)
VH: EVQLVESGGGLVKPGGSLKLSCAASGFTFSSYDMSWVRQTPEKRLEWVAMISSGGSYSYYPDSVKGRFTISRDNAKNTLYLQMSSLRSEDTAMYYCARQGDYAWFAYWGQGTLVTVSS
VL: DIQMTQSPASQSASLGESVTITCLASQTIGTWLAWYQQKPGKSPQLLIYAATSLADGVPSRFSGSGSGTKFSFKISSLQAEDFVSYYCQQFYSTPFTFGGGTKLEIK

Molecular target: MojV F clamp2 (prefusion Mòjiāng virus fusion glycoprotein ectodomain stabilised with the clamp2 molecular … (Mòjiāng virus))
Assay: ELISA
Conditions: both partners purified

Binder | binding result
B1 | no binding (tested: 50 μg/mL)
B2 | no binding (tested: 50 μg/mL)
B3 | no binding (tested: 50 μg/mL)
B4 | no binding (tested: 50 μg/mL)
